The supplement of paper PMC9112550, “Optimization of the antimicrobial peptide Bac7 by deep mutational scanning” (BMC Biology, 2022)

System: Escherichia coli TOP10
Assay: shrunken log2 fold change of peptide-encoding DNA abundance (4.5 h post-induction vs induction); higher = less antimicrobial activity (less host growth inhibition)
Conditions: time post-induction: 4.5 h; library: site-saturation at positions 5, 18, 19, 20
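Note: peptides expressed intracellularly from a pBAD plasmid library in pooled LB shake-flask culture, induced with 0.3% L-arabinose, DNA abundance read by NGS, three biological replicates, DESeq2 with apeglm shrinkage.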

Row | Sequence | shrunken log2 fold change
1 | RRIRIRPPRLPRPRPRPHYEPRP | -0.618
2 | RRIRARPPRLPRPRPRPYPWPRP | -0.32
3 | RRIRDRPPRLPRPRPRPHMAPRP | -0.232
4 | RRIRHRPPRLPRPRPRPQKYPRP | -0.383
5 | RRIRGRPPRLPRPRPRPNHLPRP | -0.226
6 | RRIRNRPPRLPRPRPRPGTFPRP | -0.281
7 | RRIRERPPRLPRPRPRPHQCPRP | -0.262
8 | RRIRWRPPRLPRPRPRPETHPRP | 0.756
9 | RRIRQRPPRLPRPRPRPQCSPRP | -0.203
10 | RRIRLRPPRLPRPRPRPNKTPRP | 0.0829
11 | RRIRFRPPRLPRPRPRPKFNPRP | -0.588
12 | RRIRLRPPRLPRPRPRPDWKPRP | 0.0269
13 | RRIRQRPPRLPRPRPRPDDNPRP | 0.0317
14 | RRIRWRPPRLPRPRPRPAIHPRP | 0.039
15 | RRIRWRPPRLPRPRPRPTINPRP | -0.303
16 | RRIRPRPPRLPRPRPRPEHDPRP | -0.00589
17 | RRIRQRPPRLPRPRPRPYQIPRP | -0.227
18 | RRIRERPPRLPRPRPRPWFEPRP | -0.0941
19 | RRIRSRPPRLPRPRPRPLRQPRP | 0.364
20 | RRIRGRPPRLPRPRPRPKPRPRP | 1.16
21 | RRIRFRPPRLPRPRPRPDYGPRP | -0.238
22 | RRIRSRPPRLPRPRPRPSWGPRP | -0.114
23 | RRIRWRPPRLPRPRPRPEKLPRP | 0.225
24 | RRIRGRPPRLPRPRPRPLKYPRP | 0.145
25 | RRIRQRPPRLPRPRPRPWQRPRP | -0.0557
26 | RRIRHRPPRLPRPRPRPTFKPRP | -0.537
27 | RRIRQRPPRLPRPRPRPKPLPRP | 0.176
28 | RRIRKRPPRLPRPRPRPFSCPRP | -0.122

Row | Sequence | shrunken log2 fold change
29 | RRIRFRPPRLPRPRPRPYMGPRP | -0.225
30 | RRIRNRPPRLPRPRPRPSQHPRP | -0.0437
31 | RRIRYRPPRLPRPRPRPQDCPRP | -0.363
32 | RRIRVRPPRLPRPRPRPPYFPRP | 0.0499
33 | RRIRMRPPRLPRPRPRPIWLPRP | 0.0637
34 | RRIRFRPPRLPRPRPRPAREPRP | 0.612
35 | RRIRRRPPRLPRPRPRPFHRPRP | 0.0574
36 | RRIRKRPPRLPRPRPRPDVIPRP | 0.153
37 | RRIRWRPPRLPRPRPRPTKGPRP | 0.469
38 | RRIRARPPRLPRPRPRPESWPRP | 1.49
39 | RRIRARPPRLPRPRPRPYNMPRP | -0.809
40 | RRIRMRPPRLPRPRPRPDQYPRP | -0.418
41 | RRIRWRPPRLPRPRPRPRWVPRP | 0.454
42 | RRIRVRPPRLPRPRPRPARGPRP | 0.681
43 | RRIRYRPPRLPRPRPRPSKFPRP | -0.299
44 | RRIRDRPPRLPRPRPRPERLPRP | 0.659
45 | RRIRGRPPRLPRPRPRPSTQPRP | 0.82
46 | RRIRERPPRLPRPRPRPSRYPRP | -0.481
47 | RRIRYRPPRLPRPRPRPREAPRP | 0.469
48 | RRIRDRPPRLPRPRPRPVVVPRP | 0.328
49 | RRIRCRPPRLPRPRPRPCHQPRP | 0.0175
50 | RRIRWRPPRLPRPRPRPSISPRP | -0.283
51 | RRIRGRPPRLPRPRPRPKCYPRP | 0.107
52 | RRIRDRPPRLPRPRPRPMLQPRP | 0.0454
53 | RRIRHRPPRLPRPRPRPSLEPRP | 0.0392
54 | RRIRHRPPRLPRPRPRPIAHPRP | 0.0481
55 | RRIRERPPRLPRPRPRPQQCPRP | -0.0909
